Measurements taken from patent US20040265337A1, “Method of generating an immune response and compositions used for same” (priority 2002, published 2004).

T1: HD-5 (Homo sapiens, UniProt Q01523)
T1 sequence (Q01523 63-94 limits assumed): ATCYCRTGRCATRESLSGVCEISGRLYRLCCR

B1: alpha 1-antichymotrypsin: serpin, inhibitor of defensins (protein, UniProt P01011 24-423, looked up)
Alpha-1-antichymotrypsin: HPNSPLDEENLTQENQDRGTHVDLGLASANVDFAFSLYKQLVLKAPDKNVIFSPLSISTALAFLSLGAHNTTLTEILKGLKFNLTETSEAEIHQSFQHLLRTLNQSSDELQLSMGNAMFVKEQLSLLDRFTEDAKRLYGSEAFATDFQDSAAAKKLINDYVKNGTRGKITDLIKDLDSQTMMVLVNYIFFKAKWEMPFDPQDTHQSRFYLSKKKWVMVPMMSLHHLTIPYFRDEELSCTVVELKYTGNASALFILPDQDKMEEVEAMLLPETLKRWRDSLEFREIGELYLPKFSISRDYNLNDILLQLGIEEAFTSKADLSGITGARNLAVSQVVHKAVLDVFEEGTEASAATAVKITLLSALVETRTIVRFNRPFLMIIVPTDTQNIFFMSKVTNPKQA
B2: HD-5: human defensin 5, anti-microbial peptide of the human intestine (protein, UniProt Q01523 20-94, looked up)
Defensin alpha 5: ESLQERADEATTQKQSGEDNQDLAISFAGNGLSALRTSGSQARATCYCRTGRCATRESLSGVCEISGRLYRLCCR
modifications: Defensin-5
notes: human defensin 5, anti-microbial peptide of the human intestine

Legend:
HD-5 = target: T1, HD-5; conditions: in vitro, against Salmonella enterica serovar Typhimurium; cited from earlier work
human CEA antigen = test: Cytotoxicity (CTL) assays in HD-5 transgenic mice immunized orally with the Salmonella based CEA-DNA vaccine; type: in vivo; conditions: oral immunization, defensin inhibitor co-formulated or expressed by the strain
From the text: HD-5 inhibitors enhance efficacy of whole organism vaccines such as Salmonella enterica serovar Typhimurium. Human defensin 5 (HD-5), is the major defensin in humans which is bactericidal for Salmonella typhimurium infection. HD-5 transgenic mice are dramatically more resistant to Salmonella typhimurium infection providing a model system to study effectiveness of Salmonella typhimurium as a platform vaccine carrier in the presence of inhibitors of HD-5. See Gosh D. et al., Nature Immunology, 3:583 (2002); Zasloff M, Nature Immunology, 3:508 (2002). HD-5 inhibitors increase efficacy of the Salmonella enterica based human CEA-DNA vaccine. Human CEA (carcinoembryonic antigen) is a tumor antigen for which protective immunity can be induced by vaccination with a live attenuated Salmonella enterica vaccine. See Xiang R. et al., Clinical Cancer Research, 7: 856s (2001). Efficacy of the vaccine is measured by conducting cytotoxicity (CTL) assays in HD-5 transgenic mice to measure immune response to the human CEA antigen. CTL assays are conducted in mice immunized orally with various doses of the vaccine (RemeStim-CEA), with or without addition of the HD-5 inhibitor. […]

trypsin = conditions: in vitro; cited from earlier work
[1] = tested on: Salmonella enterica serovar Typhimurium; conditions: cited from earlier work

Row | Molecule | inhibition of the bactericidal activity of the mature, active defensin (HD-5) | further results
1 | alpha 1-proteinase inhibitor: serpin, inhibitor of defensins | inhibit the bactericidal activity | 
2 | Pro-piece of HD-5: pro-domain of human HD-5 (amino acids 20-62), HD-5 peptide inhibitor (ESLQERADEATTQKQSGEDNQDLAISFAGNGLSALRTSGSQAR) | inhibit the bactericidal activity | 
3 | alpha 2-macroglobulin: protein inhibitor of defensins | inhibit the bactericidal activity | 
4 | Dermatan sulfate [reference compound] | inactivates alpha-defensin anti-bacterial activity | effectiveness of the Salmonella based CEA-DNA vaccine as measured by cytotoxicity assays (human CEA antigen): enhances the effectiveness
5 | N=C(N)c1ccc(CS(=O)(=O)F)cc1 [APMSF, 4-amidinophelylmethane sulfonyl-fluoride] |  | inhibition of maturation of pro-HD-5 to mature HD-5 by trypsin (trypsin): inhibit maturation of pro-HD-5 to mature HD-5
6 | B1 | inhibit the bactericidal activity | 
7 | B2 |  | bactericidal activity against Salmonella Typhimurium [1]: bactericidal
